Consider one molecule from patent US5840530, “DNA encoding receptors for the beta-2 chain of human IL-12” (Hoffmann-La Roche Inc., dated 1998).

Assay [1] deals with T1, human IL-12 receptor beta1 and beta2 coexpressed on COS cells (cotransfection of the pEF-BOS beta1 plasmid … (human)). Nature of the assay: equilibrium binding of 125I-labeled IL-12 to COS cells cotransfected with beta1 and beta2 plasmids, Scatchard analysis, low affinity site. As to the method:
(§1) Recombinant human IL-12 was labeled with ^125I as follows. Iodogen was dissolved in chloroform. 0.05 mg aliquots of Iodogen were dried in 12×150 mm borosilicate glass tubes. For radiolabeling, 1.0 mCi Na[^125I] was added to the Iodogen-coated borosilicate glass tube, which also contained 0.05 ml of Tris-iodination buffer (25 mM Tris-HCL pH 7.5, 0.4M NaCl and 1 mM EDTA) to form a ^125I solution. The ^125I solution was activated by incubating for 6 minutes at room temperature. The activated ^125I solution was transferred to a tube containing 0.05 to 0.1 ml recombinant human IL-12 (31.5 µg) in Tris-iodination buffer. The resulting mixture of the activated ^125I solution and the recombinant human IL-12 was incubated for 6 minutes at room temperature. At the end of the incubation, 0.05 ml of Iodogen stop buffer (10 mg/ml tyrosine, 10% glycerol in Dulbecco's phosphate buffered saline (PBS), pH 7.40) was added and reacted for 3 minutes. The resulting mixture was then diluted with 1.0 ml Tris-iodination buffer containing 0.25% bovine serum albumin (BSA), and applied to a Bio-Gel P10DG desalting column for chromatography. The column was eluted with Tris-iodination buffer containing 0.25% BSA. […] The TCA precipitable radioactivity (10% TCA final concentration) was typically in excess of 95% of the total radioactivity. […]

Assay [2] concerns the target T1, human IL-12 receptor beta1 and beta2 …. Nature of the assay: equilibrium binding of 125I-labeled IL-12 to COS cells cotransfected with beta1 and beta2 plasmids, Scatchard analysis, high affinity site. As to the method: as §1

The Kd is the constant that tells how readily two partners part at equilibrium.

B1: recombinant human IL-12 (Interleukin-12) (ligand)
chain 1: IWELKKDVYVVELDWYPDAPGEMVVLTCDTPEEDGITWTLDQSSEVLGSGKTLTIQVKEFGDAGQYTCHKGGEVLSHSLLLLHKKEDGIWSTDILKDQKEPKNKTFLRCEAKNYSGRFTCWWLTTISTDLTFSVKSSRGSSDPQGVTCGAATLSAERVRGDNKEYEYSVECQEDSACPAAEESLPIEVMVDAVHKLKYENYTSSFFIRDIIKPDPPKNLQLKPLKNSRQVEVSWEYPDTWSTPHSYFSLTFCVQVQGKSKREKKDRVFTDKTSATVICRKNASISVRAQDRYYSSSWSEWASVPCS
chain 2: RNLPVATPDPGMFPCLHHSQNLLRAVSNMLQKARQTLEFYPCTSEEIDHEDITKDKTSTVEACLPLELTKNESCLNSRETSFITNGSCLASRKTSFMMALCLSSIYEDLKMYQVEFKTMNAKLLMDPKRQIFLDQNMLAVIDELMQALNFNSETVPQKSSLEEPDFYKTKIKLCILLHAFRIRAVTIDRVMSYLNAS
For B1, the Kd in assay [1] worked out at 5 nM; in assay [2], 0.05 nM.
